# T1: human FcγRIIb receptor protein (R&D Systems) (human, UniProt P31994 46-217)
# T1 construct: Bought protein injected over captured antibody in Biacore; also called CD32b
# T1 sequence (looked up): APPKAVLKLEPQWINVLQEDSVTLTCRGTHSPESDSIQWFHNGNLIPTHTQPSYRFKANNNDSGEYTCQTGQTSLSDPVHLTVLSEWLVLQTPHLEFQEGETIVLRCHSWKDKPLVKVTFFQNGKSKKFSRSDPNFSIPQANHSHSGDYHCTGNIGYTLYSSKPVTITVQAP
# T2: human FcγRIIa (131R), His- and GST-tagged (human, UniProt P12318 34-217)
# T2 construct: Expressed in HEK293T cells, purified by nickel chromatography; also called R131 FcγRIIa; not shown: 6xHis and GST tags of the pTT5 vector
# T2 sequence (looked up): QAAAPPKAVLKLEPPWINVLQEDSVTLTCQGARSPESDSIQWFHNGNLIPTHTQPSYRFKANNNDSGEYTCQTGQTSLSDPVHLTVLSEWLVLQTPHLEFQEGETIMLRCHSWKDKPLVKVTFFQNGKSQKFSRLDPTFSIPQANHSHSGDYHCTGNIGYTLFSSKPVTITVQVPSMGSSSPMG
# T3: cynoFcγRIIb (Macaca fascicularis, UniProt A0A140HDP4)
# T3 construct: extracellular region, C-terminal His- and GST-tag; also called cynomolgus monkey FcγRIIb
# T3 sequence (receptor extracellular region): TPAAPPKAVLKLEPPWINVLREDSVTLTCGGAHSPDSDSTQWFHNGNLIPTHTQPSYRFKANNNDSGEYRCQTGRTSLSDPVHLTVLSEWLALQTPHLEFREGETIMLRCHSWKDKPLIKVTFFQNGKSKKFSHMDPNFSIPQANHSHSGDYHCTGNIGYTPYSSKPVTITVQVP
# B1: G236D/H268D (antibody, human IgG1, kappa)
# heavy: not shown
# light: DIVMTQSPATLSLSPGERATLSCRSSKSLQNVNGNTYLYWFQQKPGQSPQLLIYRMSNLNSGVPDRFSGSGSGTEFTLTISSLEPEDFAVYYCMQHLEYPITFGAGTKLEIKRTVAAPSVFIFPPSDEQLKSGTASVVCLLNNFYPREAKVQWKVDNALQSGNSQESVTEQDSKDSTYSLSSTLTLSKADYEKHKVYACEVTHQGLSSPVTKSFNRGEC
# notes: HuAM4G7 anti-CD19 IgG1 (m1) with these Fc substitutions, EU index; copies: 2 + 2
# B2: G237Y (antibody, human IgG1, kappa)
# heavy: not shown
# light: B1 light
# notes: HuAM4G7 anti-CD19 IgG1 (m1) with this Fc substitution, EU index; copies: 2 + 2
# B3: L234E/H268D (antibody, human IgG1, kappa)
# heavy: not shown
# light: B1 light
# notes: as for B1
# B4: G236I (antibody, human IgG1, kappa)
# heavy: not shown
# light: B1 light
# notes: as for B2
# B5: L235Y/S267D (antibody, human IgG1, kappa)
# heavy: not shown
# light: B1 light
# notes: as for B1
# B6: L234I (antibody, human IgG1, kappa)
# heavy: not shown
# light: B1 light
# notes: as for B2
# B7: G236W (antibody, human IgG1, kappa)
# heavy: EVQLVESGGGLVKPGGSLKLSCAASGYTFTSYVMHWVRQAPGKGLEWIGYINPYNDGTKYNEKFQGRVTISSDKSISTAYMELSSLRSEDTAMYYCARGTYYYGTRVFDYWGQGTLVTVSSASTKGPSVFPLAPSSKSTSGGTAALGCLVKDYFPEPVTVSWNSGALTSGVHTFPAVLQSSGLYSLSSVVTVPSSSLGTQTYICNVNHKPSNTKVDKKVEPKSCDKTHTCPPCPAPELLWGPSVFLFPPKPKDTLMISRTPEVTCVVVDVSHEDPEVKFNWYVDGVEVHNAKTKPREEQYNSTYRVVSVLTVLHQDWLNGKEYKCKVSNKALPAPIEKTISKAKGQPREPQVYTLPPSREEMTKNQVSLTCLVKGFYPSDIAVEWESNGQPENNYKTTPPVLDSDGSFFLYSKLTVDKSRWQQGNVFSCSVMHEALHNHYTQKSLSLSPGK
# light: B1 light
# notes: as for B2
# B8: G237V (antibody, human IgG1, kappa)
# heavy: not shown
# light: B1 light
# notes: as for B2
# B9: L235S/S267E (antibody, human IgG1, kappa)
# heavy: not shown
# light: B1 light
# notes: as for B1
# B10: G237P (antibody, human IgG1, kappa)
# heavy: not shown
# light: B1 light
# notes: as for B2
# B11: L235H (antibody, human IgG1, kappa)
# heavy: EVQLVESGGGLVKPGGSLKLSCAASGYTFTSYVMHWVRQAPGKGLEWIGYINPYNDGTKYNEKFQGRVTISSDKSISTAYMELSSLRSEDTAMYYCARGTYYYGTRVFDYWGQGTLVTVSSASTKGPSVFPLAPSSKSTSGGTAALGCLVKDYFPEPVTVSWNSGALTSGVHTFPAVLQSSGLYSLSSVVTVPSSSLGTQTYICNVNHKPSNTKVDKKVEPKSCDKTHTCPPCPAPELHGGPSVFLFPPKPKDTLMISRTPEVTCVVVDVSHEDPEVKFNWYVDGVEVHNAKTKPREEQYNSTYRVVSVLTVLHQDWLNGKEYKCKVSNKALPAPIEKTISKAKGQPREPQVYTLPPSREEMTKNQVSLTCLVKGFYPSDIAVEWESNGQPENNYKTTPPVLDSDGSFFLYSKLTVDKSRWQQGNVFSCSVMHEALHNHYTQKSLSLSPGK
# light: B1 light
# notes: as for B2
# B12: G236L (antibody, human IgG1, kappa)
# heavy: not shown
# light: B1 light
# notes: as for B2
# B13: G237L (antibody, human IgG1, kappa)
# heavy: not shown
# light: B1 light
# notes: as for B2
# B14: S267D/A327E (antibody, human IgG1, kappa)
# heavy: not shown
# light: B1 light
# notes: as for B1
# B15: L235W (antibody, human IgG1, kappa)
# heavy: not shown
# light: B1 light
# notes: as for B2
# B16: L234V (antibody, human IgG1, kappa)
# heavy: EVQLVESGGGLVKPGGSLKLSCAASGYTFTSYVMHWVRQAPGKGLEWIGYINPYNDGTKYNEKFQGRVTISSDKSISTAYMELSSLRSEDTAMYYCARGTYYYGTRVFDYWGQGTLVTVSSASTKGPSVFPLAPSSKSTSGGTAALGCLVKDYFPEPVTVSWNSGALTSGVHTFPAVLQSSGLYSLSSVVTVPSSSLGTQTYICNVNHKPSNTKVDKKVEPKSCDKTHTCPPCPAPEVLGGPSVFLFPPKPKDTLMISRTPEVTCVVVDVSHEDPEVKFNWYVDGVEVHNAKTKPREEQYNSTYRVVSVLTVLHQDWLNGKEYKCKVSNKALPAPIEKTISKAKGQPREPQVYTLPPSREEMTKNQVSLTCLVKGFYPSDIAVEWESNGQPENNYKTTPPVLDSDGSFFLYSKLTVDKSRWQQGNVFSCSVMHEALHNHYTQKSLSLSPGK
# light: B1 light
# notes: as for B2
# B17: L234Y (antibody, human IgG1, kappa)
# heavy: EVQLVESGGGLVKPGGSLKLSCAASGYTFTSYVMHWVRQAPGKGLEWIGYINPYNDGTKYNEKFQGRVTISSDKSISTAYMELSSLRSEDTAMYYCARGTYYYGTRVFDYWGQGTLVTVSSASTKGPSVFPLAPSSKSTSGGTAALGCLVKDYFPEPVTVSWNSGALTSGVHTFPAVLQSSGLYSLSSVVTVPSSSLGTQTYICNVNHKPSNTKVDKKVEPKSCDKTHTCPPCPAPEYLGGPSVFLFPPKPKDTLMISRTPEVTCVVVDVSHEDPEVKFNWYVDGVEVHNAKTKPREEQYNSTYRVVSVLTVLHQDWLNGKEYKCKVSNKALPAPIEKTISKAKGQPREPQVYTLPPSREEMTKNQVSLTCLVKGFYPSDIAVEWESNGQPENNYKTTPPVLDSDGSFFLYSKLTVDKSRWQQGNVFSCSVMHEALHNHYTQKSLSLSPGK
# light: B1 light
# notes: as for B2
# B18: L234F/G236N (antibody, human IgG1, kappa)
# heavy: not shown
# light: B1 light
# notes: as for B1
# B19: G236Q (antibody, human IgG1, kappa)
# heavy: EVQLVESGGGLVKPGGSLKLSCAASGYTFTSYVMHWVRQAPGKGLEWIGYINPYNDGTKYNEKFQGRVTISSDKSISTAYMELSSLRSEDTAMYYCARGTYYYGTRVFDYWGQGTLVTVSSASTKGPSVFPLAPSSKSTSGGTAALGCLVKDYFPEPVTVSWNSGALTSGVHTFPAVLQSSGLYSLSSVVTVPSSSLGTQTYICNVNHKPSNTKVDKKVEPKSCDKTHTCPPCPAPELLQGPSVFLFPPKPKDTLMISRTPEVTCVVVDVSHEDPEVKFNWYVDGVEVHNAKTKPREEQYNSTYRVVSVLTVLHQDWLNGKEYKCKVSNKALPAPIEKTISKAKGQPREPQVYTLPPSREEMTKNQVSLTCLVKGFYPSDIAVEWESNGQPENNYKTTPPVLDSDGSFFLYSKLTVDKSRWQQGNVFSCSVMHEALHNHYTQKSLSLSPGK
# light: B1 light
# notes: as for B2
# B20: L235P (antibody, human IgG1, kappa)
# heavy: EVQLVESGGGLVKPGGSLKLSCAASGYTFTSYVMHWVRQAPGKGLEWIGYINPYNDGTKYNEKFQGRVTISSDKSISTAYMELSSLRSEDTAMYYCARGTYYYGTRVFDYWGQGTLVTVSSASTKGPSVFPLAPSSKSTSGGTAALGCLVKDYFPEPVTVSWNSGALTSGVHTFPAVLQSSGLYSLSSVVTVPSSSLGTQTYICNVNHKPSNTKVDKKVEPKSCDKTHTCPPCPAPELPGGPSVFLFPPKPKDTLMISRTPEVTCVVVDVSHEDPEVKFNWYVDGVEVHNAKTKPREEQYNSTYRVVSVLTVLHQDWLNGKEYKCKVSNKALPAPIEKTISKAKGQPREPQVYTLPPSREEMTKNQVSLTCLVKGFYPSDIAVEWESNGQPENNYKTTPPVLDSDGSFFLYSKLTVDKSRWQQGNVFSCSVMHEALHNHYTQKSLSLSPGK
# light: B1 light
# notes: as for B2
# B21: L234S (antibody, human IgG1, kappa)
# heavy: not shown
# light: B1 light
# notes: as for B2
# B22: G237Q (antibody, human IgG1, kappa)
# heavy: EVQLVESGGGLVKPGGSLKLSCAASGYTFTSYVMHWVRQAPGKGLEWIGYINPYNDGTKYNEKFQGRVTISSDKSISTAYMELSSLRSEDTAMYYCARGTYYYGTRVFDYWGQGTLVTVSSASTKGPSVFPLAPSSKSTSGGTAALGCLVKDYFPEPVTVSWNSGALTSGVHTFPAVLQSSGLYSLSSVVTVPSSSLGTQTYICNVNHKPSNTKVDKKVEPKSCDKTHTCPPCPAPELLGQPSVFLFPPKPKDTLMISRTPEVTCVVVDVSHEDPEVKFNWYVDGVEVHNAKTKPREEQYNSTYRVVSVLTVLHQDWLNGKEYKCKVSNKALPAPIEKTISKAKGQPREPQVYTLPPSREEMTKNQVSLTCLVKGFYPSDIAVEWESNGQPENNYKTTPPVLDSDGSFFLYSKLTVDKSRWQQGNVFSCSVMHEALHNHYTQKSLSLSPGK
# light: B1 light
# notes: as for B2
# B23: L235S (antibody, human IgG1, kappa)
# heavy: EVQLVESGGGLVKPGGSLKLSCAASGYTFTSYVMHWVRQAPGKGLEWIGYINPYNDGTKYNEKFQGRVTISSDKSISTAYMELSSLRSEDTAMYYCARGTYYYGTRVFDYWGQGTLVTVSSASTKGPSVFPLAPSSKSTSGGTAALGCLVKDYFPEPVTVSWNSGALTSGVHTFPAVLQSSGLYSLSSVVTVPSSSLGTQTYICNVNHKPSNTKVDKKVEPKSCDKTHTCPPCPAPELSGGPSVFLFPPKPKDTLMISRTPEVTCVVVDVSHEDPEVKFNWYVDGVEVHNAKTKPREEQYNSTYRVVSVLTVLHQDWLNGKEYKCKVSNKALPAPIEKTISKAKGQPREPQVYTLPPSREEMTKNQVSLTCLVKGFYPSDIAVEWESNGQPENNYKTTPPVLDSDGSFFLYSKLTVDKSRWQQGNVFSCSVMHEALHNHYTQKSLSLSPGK
# light: B1 light
# notes: as for B2
# B24: G236M (antibody, human IgG1, kappa)
# heavy: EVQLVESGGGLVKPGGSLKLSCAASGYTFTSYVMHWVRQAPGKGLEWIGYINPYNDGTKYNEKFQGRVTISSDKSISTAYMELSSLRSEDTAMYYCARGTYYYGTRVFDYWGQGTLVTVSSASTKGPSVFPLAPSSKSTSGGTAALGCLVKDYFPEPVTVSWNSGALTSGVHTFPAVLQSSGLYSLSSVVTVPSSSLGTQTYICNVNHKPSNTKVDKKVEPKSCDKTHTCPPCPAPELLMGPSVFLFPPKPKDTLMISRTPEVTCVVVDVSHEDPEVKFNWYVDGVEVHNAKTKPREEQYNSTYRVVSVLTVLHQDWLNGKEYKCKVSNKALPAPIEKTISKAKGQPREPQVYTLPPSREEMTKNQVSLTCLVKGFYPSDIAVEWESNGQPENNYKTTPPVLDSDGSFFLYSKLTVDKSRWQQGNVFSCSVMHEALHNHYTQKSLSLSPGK
# light: B1 light
# notes: as for B2
# B25: S267D/H268E (antibody, human IgG1, kappa)
# heavy: not shown
# light: B1 light
# notes: as for B1
# B26: S267D/A327D (antibody, human IgG1, kappa)
# heavy: not shown
# light: B1 light
# notes: as for B1
# B27: G236Y (antibody, human IgG1, kappa)
# heavy: not shown
# light: B1 light
# notes: as for B2
# B28: L234P (antibody, human IgG1, kappa)
# heavy: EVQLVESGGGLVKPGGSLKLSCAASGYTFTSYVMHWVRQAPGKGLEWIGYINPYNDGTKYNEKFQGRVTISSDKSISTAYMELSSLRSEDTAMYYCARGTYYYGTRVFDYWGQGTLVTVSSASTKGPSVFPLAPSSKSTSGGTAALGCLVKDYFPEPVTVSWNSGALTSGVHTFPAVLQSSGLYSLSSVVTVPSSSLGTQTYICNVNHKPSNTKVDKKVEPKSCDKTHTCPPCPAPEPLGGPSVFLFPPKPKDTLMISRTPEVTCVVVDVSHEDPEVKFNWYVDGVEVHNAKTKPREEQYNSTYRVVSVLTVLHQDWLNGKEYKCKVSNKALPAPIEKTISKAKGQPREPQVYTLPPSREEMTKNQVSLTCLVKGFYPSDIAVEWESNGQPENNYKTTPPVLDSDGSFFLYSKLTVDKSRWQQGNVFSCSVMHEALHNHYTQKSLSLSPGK
# light: B1 light
# notes: as for B2
# B29: G236H (antibody, human IgG1, kappa)
# heavy: not shown
# light: B1 light
# notes: as for B2
# B30: L235Q (antibody, human IgG1, kappa)
# heavy: not shown
# light: B1 light
# notes: as for B2
# B31: L235T/S267E (antibody, human IgG1, kappa)
# heavy: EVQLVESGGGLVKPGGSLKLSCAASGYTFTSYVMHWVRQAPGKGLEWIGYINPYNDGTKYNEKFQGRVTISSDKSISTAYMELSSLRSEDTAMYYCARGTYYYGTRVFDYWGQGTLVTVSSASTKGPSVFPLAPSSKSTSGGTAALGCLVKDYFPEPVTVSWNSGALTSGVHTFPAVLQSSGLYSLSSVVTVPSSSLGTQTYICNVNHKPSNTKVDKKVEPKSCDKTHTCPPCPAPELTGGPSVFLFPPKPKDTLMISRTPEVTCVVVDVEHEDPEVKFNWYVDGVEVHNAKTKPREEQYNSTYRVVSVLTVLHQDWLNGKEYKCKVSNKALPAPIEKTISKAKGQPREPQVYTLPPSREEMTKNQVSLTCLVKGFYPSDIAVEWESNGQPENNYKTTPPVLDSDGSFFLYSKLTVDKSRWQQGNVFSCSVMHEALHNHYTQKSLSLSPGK
# light: B1 light
# notes: as for B1
# B32: G236K (antibody, human IgG1, kappa)
# heavy: not shown
# light: B1 light
# notes: as for B2
# B33: S267E/H268D (antibody, human IgG1, kappa)
# heavy: not shown
# light: B1 light
# notes: as for B1
# Molecular target: T1, human FcγRIIb receptor protein (R&D …)
# Test: SPR
# Protocol: (§1) Variants were screened for receptor affinity using Biacore™ technology, also referred to as Biacore herein, a surface plasmon resonance (SPR) based technology for studying biomolecular interactions in real time. SPR measurements were performed using a Biacore 3000 instrument (Biacore, Piscataway, N.J.). A protein A/G (Pierce Biotechnology) CM5 biosensor chip (Biacore) was generated using a standard primary amine coupling protocol. All measurements were performed using HBS-EP buffer (10 mM HEPES pH 7.4, 0.15 M NaCl, 3 mM EDTA, 0.005% vol/vol surfactant P20, Biacore). Antibodies at 20 nM or 50 nM in HBS-EP buffer were immobilized on the protein A/G surface and FcγRs were injected. After each cycle, the surface was regenerated by injecting glycine buffer (10 mM, pH 1.5). Data were processed by zeroing time and response before the injection of FcγR and by subtracting appropriate nonspecific signals (response of reference channel and injection of running buffer). Kinetic analyses were performed by global fitting of binding data with a 1:1 Langmuir binding model using BIAevaluation software (Biacore).
Fold vs WT IgG1 [fold],Kd [µM],binding result,Binder
11.6,0.126,–,B1
0.33,4.45,–,B2
5.89,0.249,–,B3
–,–,no binding,B4
15.9,0.0922,–,B5
0.108,13.6,–,B6
0.147,10,–,B7
0.147,10,–,B8
–,37.8,–,B9
0.0147,100,–,B10
0.734,2,–,B11
–,–,no binding,B12
–,–,no binding,B13
12.1,0.121,–,B14
–,–,no binding,B15
0.456,3.22,–,B16
0.0237,61.9,–,B17

Fold vs WT IgG1 [fold],Kd [µM],binding result,Binder
–,–,no binding,B18
0.147,10,–,B19
0.00585,251,–,B20
0.192,7.64,–,B21
0.147,10,–,B22
0.0147,100,–,B23
0.147,10,–,B24
17.8,0.0826,–,B25
6.89,0.213,–,B26
–,–,no binding,B27
0.0644,22.8,–,B28
–,–,no binding,B29
–,–,no binding,B30
2.37,0.619,–,B31
0.0147,100,–,B32
33.3,0.044,–,B33

# Molecular target: T2, human FcγRIIa (131R), His- and …
# Test: SPR
# Protocol: as §1
Fold vs WT IgG1 [fold],Kd [µM],binding result,Binder
0.902,0.952,–,B2
–,–,no binding,B4
0.0554,15.5,–,B6
0.0859,10,–,B7
0.0342,25.1,–,B8
0.00859,100,–,B10
0.756,1.14,–,B11
–,–,no binding,B12
–,–,no binding,B13
–,–,no binding,B15
0.134,6.42,–,B16
0.0511,16.8,–,B17
–,–,no binding,B18
0.0859,10,–,B19
0.122,7.01,–,B20
0.693,1.24,–,B21
0.0859,10,–,B22
0.00859,100,–,B23
0.0859,10,–,B24
–,–,no binding,B27
0.0141,60.7,–,B28
0.135,6.35,–,B29
2.04,0.42,–,B30
3.06,0.281,–,B31
0.00859,100,–,B32

# Molecular target: T3, cynoFcγRIIb
# Test: SPR
# Protocol: as §1
# Variant antibodies were tested for their affinity to mouse or cynologous monkey FcγRs using Biacore SPR as described above. Specifically, antibodies were first immobilized on a protein A/G chip to high density, and then followed by injections of the extracellular domain of the mouse or cynologous monkey FcγR of interest. Both association and dissociation phases were tracked in real time using the Biacore technology.
row,Fold vs WT IgG1 (Kd) [fold],Binder
1,0.832,B11
2,1.44,B15
3,1.01,B17

# From patent US20130315910A1 (Xencor, published 2013)
